These results are taken from publication doi:10.1101/2021.03.08.433449 (bioRxiv, 2021).

Changes are numbered by the printed parent chain.

Assay [1] concerns the target monomeric human Fc-fused SARS-CoV-2_RBD-SD1 (SARS-CoV-2 (Wuhan-Hu-1), UniProt P0DTC2). In words: BLI. (In general: Biolayer interferometry detects binding as a change in optical thickness at a sensor tip.)
Assay [2] addresses mouse IgG1 Fc fused SARS-CoV-1 RBD (Sino Biological, 40150-V05H) (SARS-CoV-1, isolate not named, UniProt P59594). In words: BLI.
For assay [3], the target named is SARS-CoV-2 spike expressed on the surface of HEK293 cells (SARS-CoV-2 (Wuhan-Hu-1), UniProt P0DTC2). In words: flow cytometry on cells.

B1: humVHH_S56A (VHH)
VHH: EVQLVESGGGLVQPGGSLRLSCAASGRTFSEYAMGWFRQAPGKEREFVATISWSGGATYYTDSVKGRFTISRDNAKNTVYLQMNSLRPEDTAVYYCAAAGLGTVVSEWDYDYDYWGQGTLVTVSS
For B1, the “fold increase in affinity over humVHH” value in assay [1] is ~7 fold. Besides, the binding result in assay [2] is on record as “binds”.

B2: humVHH (VHH)
VHH: B1 VHH with A57S
As to B2, the binding result in assay [1] and in assay [3] was “binds” in each case.
